According to US20190315842A1 (DUKE UNIVERSITY, published 2019):
Where no end group is shown, it is not given here. The star is where a group is joined. Biotin = O=C1N[C@H]2[C@H](CS[C@H]2CCCCC(=O)*)N1

Experiments:
[1] = target: T1, systemic lupus erythematosus autoantigen SSB (UniProt P05455 1-408, limits assumed); test: AtheNA Multi-Lyte ANA, Ab at 50 ug/ml;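 also: monoclonal antibodies probed against a nuclear autoantigen panel (SSA, SSB, Sm, RNP, Scl-70, Jo-1, dsDNA, CentB, histones), with anti-HIV 4E10 and palivizumab as control antibodies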
T1 sequence (looked up): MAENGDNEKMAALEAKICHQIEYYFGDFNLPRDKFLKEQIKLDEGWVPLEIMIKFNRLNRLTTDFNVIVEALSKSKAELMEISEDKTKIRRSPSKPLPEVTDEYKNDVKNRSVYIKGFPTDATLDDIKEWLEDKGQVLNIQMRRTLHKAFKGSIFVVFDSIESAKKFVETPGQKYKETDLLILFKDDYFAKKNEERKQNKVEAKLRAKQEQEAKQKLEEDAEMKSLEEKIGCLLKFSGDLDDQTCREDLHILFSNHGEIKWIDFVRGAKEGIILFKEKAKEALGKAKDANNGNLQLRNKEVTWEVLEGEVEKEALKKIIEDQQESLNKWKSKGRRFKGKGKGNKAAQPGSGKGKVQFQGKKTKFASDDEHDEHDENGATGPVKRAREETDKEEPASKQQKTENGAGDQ

[2] = target: T2, centromere B (CentB) (UniProt P07199 2-599); test: AtheNA Multi-Lyte ANA, Ab at 50 ug/ml;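 also: monoclonal antibodies probed against a nuclear autoantigen panel (SSA, SSB, Sm, RNP, Scl-70, Jo-1, dsDNA, CentB, histones), with anti-HIV 4E10 and palivizumab as control antibodies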
T2 sequence (looked up): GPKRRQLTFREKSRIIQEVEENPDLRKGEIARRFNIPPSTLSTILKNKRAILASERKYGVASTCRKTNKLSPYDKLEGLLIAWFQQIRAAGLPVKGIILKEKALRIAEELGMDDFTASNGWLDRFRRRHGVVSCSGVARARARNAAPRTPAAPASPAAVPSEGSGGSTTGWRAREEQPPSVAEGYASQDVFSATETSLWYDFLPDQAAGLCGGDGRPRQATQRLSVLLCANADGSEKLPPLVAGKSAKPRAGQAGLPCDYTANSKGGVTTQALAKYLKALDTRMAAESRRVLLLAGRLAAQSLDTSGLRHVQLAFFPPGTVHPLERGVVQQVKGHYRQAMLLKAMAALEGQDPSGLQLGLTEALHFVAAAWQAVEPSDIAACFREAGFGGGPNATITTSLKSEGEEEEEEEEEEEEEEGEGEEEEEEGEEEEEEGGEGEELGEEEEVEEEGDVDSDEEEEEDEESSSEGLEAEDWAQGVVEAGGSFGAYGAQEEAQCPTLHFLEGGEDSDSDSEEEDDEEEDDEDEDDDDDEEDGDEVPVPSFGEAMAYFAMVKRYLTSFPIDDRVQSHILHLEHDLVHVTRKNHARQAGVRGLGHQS

[3] = target: T2, centromere B (CentB); test: AtheNA Multi-Lyte ANA, Ab at 12.5 ug/ml;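 also: monoclonal antibodies screened for binding to a panel of nuclear autoantigens (SSA, SSB, Sm, RNP, Scl-70, Jo-1, dsDNA, CentB, histones), with anti-HIV and anti-RSV antibodies as controls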
[4] = target: T1, systemic lupus erythematosus …; test: AtheNA Multi-Lyte ANA, Ab at 6.25 ug/ml;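 also: monoclonal antibodies screened for reactivity against a panel of nuclear autoantigens, with an anti-HIV and an anti-RSV monoclonal antibody serving as controls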
[5] = target: T2, centromere B (CentB); test: AtheNA Multi-Lyte ANA, Ab at 6.25 ug/ml;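 also: monoclonal antibodies screened for reactivity against a panel of nuclear autoantigens, with an anti-HIV and an anti-RSV monoclonal antibody serving as controls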
[6] = target: systemic lupus erythematosus autoantigen SSA; test: AtheNA Multi-Lyte ANA, Ab at 25 ug/ml
[7] = target: T3, Sm (sphingomyelin); test: AtheNA Multi-Lyte ANA, Ab at 25 ug/ml
T3 construct: in an ANA panel of nuclear antigens Sm is usually the Smith ribonucleoprotein antigen; Kept, but see recheck

[8] = target: T4, histidine-tRNA ligase (Jo-1) (UniProt P12081 2-509); test: AtheNA Multi-Lyte ANA, Ab at 25 ug/ml
T4 sequence (looked up): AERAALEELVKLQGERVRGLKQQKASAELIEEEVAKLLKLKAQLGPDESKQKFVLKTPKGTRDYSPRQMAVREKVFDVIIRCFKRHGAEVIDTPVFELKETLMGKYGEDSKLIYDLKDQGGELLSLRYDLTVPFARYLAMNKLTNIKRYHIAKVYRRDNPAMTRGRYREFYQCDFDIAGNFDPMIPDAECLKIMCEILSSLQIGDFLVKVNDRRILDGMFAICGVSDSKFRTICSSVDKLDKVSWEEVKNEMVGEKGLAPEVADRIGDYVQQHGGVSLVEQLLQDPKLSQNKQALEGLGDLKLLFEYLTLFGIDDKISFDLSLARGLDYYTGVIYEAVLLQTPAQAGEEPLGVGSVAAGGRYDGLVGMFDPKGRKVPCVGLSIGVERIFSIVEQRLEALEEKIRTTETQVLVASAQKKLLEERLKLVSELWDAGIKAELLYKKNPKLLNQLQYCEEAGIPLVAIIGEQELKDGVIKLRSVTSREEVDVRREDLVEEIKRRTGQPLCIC

[9] = target: T5, 15-mer peptide GPPPPIDNGDITSFP (SEQ ID NO: 114) (human); test: assay and antigen not given; Example 10, epitope mapping on the 15-mer peptide
T5 construct: Immobilized for SPR; also called parent peptide
T5 peptide: GPPPPIDNGDITSFP

[10] = target: T6, GPPPPIDNGDITSFP(GGGK-biotin); test: ELISA: biotinylated peptide captured on immobilized Neutravidin, antibody at 0.5 µg/ml, anti-human IgG-HRP/ABTS, OD 405 nm
T6 construct: also called biotinylated 15-mer peptide; biotinylated 19-mer
T6 peptide: GPPPPIDNGDITSFPGGGK(Biotin)

B1: Ab7962/293i (antibody, V domains shown)
VH: LVESGGGLVQPGGSLRLSCAASGFTFSSYEMNWVRQAPGKGLEWVSYISSSGSTIYYADSVKGRFTISRDNAKNSLYLQMNSLRAEDTAVYYCARVEQLAPSPYMDVWGKGTTVTVSS
VL: MTQSLDSLTVSLGERATINCKSSQSLLYTSNNKNYLAWYQQKSGQPPKLLIYWASIRDSGVPDRFSGSGSATDFTLTINNLQAEDVAVYFCQQYYKTPLTFGGGTKVEVR
notes: Recombinant human antibody with IgG1 heavy chain backbone and kappa light chain constant (IgM in the donor B cell); they begin at LVESGGG and MTQSL; also called clone 27; pH007962/pK005996
Binder B1 has an AtheNA signal [1] of 8, an AtheNA signal [2] of 3 and an AtheNA signal [3] of 2. For the same binder, the AtheNA signal [4] was 1 and the AtheNA signal [5] was 1.

B2: Ab7957/293i (antibody, IgG1, V domains shown)
VH: LVESGGGVVPPGKSLRLSCAASGFTFSLYGIHWVRQAPGKGLEWVAVISYDGNTKYYTDSVKGRFTISRDNAKNTIYLQMNSLRLDDTAVYYCAKGAANSATFDFWGRGTMVTVSS
VL: MTQSPDSLTLSLGERATINCRSSRTVLYRSNNKNYLAWYQHKPGQPPKLLMSWASTRETGVPDRFSGSGSGTHFTLTITSLQPEDVAVYYCQQYYSPPWTFGQGTKVEIR
notes: Recombinant human antibody with IgG1 heavy chain backbone and kappa light chain constant; they begin at LVESGGG and MTQSP; also called Ab7957i; mAb 7957
Work on B2 yielded an AtheNA signal [6] of 11, an AtheNA signal [7] of 3 and an AtheNA signal [8] of 4. It also gave an AtheNA signal [2] of 4, an AtheNA signal [3] of 2 and an AtheNA signal [5] of 2. For the same binder, the EC50 [9] was 9.08 ng/mL and the binding result [10] was “binds”.

B3: Ab7968 (antibody, IgG1, V domains shown)
VH: LVESGGGVVQPGRSLRLSCAASGFTFSRYGMHWVRQAPGKGLEWVAVMSYDGSTKYYADSVKGRFAISRDNPKNTLFLQMNSLRPDDTAVYYCAKGGAAAAVMDVWGKGTTVTVSS
VL: MTQSPDSLTVSLGERATISCKSSQRLLYSSNNKNYLAWYQQKPGQPPKLLMYWASTRESGVPDRFSGSGSGTDFSLTISSLQAEDVAVYYCQQYYNPPWTFGQGTKVEVK
notes: Recombinant human antibody with IgG1 heavy chain backbone and kappa light chain constant; they begin at LVESGGG and MTQSP; also called mAb 7968; mAb7968
B3 was tested, and the AtheNA signal [6] was 8, the AtheNA signal [7] was 5 and the AtheNA signal [8] was 3. For the same binder, the AtheNA signal [1] was 9, the AtheNA signal [4] was 7 and the EC50 [9] was 7.98 ng/mL. B3: binds [10].
